Data reported in article PMC3174691 (Journal of molecular biology, 2008).

Target: T1, E. coli RecB (E. coli, UniProt P08394 1-1180)
T1 sequence (looked up): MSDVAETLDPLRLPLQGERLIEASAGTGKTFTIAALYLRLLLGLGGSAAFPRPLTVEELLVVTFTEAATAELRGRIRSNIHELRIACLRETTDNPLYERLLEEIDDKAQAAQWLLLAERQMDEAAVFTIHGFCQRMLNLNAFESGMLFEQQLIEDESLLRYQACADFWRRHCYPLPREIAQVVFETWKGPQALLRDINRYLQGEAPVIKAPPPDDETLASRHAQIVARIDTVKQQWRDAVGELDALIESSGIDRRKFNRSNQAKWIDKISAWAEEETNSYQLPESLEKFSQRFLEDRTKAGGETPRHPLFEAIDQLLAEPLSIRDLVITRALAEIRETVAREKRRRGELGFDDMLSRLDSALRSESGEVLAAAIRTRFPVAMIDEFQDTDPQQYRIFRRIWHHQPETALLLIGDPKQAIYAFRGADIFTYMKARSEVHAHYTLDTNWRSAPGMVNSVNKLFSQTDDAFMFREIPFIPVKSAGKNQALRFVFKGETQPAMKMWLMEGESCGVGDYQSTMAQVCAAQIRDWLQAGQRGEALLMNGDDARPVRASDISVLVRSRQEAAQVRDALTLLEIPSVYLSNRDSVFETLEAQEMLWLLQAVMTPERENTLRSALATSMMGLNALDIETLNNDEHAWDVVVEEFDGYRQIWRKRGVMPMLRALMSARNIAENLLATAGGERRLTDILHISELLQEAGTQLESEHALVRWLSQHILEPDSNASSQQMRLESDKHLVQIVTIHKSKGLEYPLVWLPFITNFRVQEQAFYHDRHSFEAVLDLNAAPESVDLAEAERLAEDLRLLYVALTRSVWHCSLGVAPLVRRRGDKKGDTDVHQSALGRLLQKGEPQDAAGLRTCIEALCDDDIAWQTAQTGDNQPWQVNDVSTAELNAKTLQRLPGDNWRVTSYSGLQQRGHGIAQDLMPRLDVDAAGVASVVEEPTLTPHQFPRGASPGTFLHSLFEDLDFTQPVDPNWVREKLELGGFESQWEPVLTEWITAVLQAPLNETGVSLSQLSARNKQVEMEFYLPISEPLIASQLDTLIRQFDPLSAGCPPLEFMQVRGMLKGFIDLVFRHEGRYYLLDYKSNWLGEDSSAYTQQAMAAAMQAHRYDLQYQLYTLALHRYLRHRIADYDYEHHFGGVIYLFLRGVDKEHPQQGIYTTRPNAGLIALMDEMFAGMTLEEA
Experiment: reconstitution of the complex by mixing

B1: E. coli RecC (natural protein, UniProt P07648 1-1122, looked up)
chain: MLRVYHSNRLDVLEALMEFIVERERLDDPFEPEMILVQSTGMAQWLQMTLSQKFGIAANIDFPLPASFIWDMFVRVLPEIPKESAFNKQSMSWKLMTLLPQLLEREDFTLLRHYLTDDSDKRKLFQLSSKAADLFDQYLVYRPDWLAQWETGHLVEGLGEAQAWQAPLWKALVEYTHQLGQPRWHRANLYQRFIETLESATTCPPGLPSRVFICGISALPPVYLQALQALGKHIEIHLLFTNPCRYYWGDIKDPAYLAKLLTRQRRHSFEDRELPLFRDSENAGQLFNSDGEQDVGNPLLASWGKLGRDYIYLLSDLESSQELDAFVDVTPDNLLHNIQSDILELENRAVAGVNIEEFSRSDNKRPLDPLDSSITFHVCHSPQREVEVLHDRLLAMLEEDPTLTPRDIIVMVADIDSYSPFIQAVFGSAPADRYLPYAISDRRARQSHPVLEAFISLLSLPDSRFVSEDVLALLDVPVLAARFDITEEGLRYLRQWVNESGIRWGIDDDNVRELELPATGQHTWRFGLTRMLLGYAMESAQGEWQSVLPYDESSGLIAELVGHLASLLMQLNIWRRGLAQERPLEEWLPVCRDMLNAFFLPDAETEAAMTLIEQQWQAIIAEGLGAQYGDAVPLSLLRDELAQRLDQERISQRFLAGPVNICTLMPMRSIPFKVVCLLGMNDGVYPRQLAPLGFDLMSQKPKRGDRSRRDDDRYLFLEALISAQQKLYISYIGRSIQDNSERFPSVLVQELIDYIGQSHYLPGDEALNCDESEARVKAHLTCLHTRMPFDPQNYQPGERQSYAREWLPAASQAGKAHSEFVQPLPFTLPETVPLETLQRFWAHPVRAFFQMRLQVNFRTEDSEIPDTEPFILEGLSRYQINQQLLNALVEQDDAERLFRRFRAAGDLPYGAFGEIFWETQCQEMQQLADRVIACRQPGQSMEIDLACNGVQITGWLPQVQPDGLLRWRPSLLSVAQGMQLWLEHLVYCASGGNGESRLFLRKDGEWRFPPLAAEQALHYLSQLIEGYREGMSAPLLVLPESGGAWLKTCYDAQNDAMLDDDSTLQKARTKFLQAYEGNMMVRGEGDDIWYQRLWRQLTPETMEAIVEQSQRFLLPLFRFNQS
  binding result: binds
